According to patent US20190048055A1:

Molecular target: CD38 molecules expressed on Daudi human B-cell lymphoma cells (human) (UniProt P28907)
Experiment: cell-based or functional assay

## anti-CD38 Ab (daratumumab) (antibody)
  ADCC of human PBMCs against Daudi cells, dose response of anti-CD38 Ab (0.1 nM to 50 nM); lowest antibody concentration with increased killing: 0.1 nM
